Assay results taken from PMC9342898.
Like-named read-outs stand apart in the source and are kept apart here.

Tests used:
F-actin = F-actin (UniProt P68135); experiment: pull-down; actin isolation: 5 µM MVI ± 15 µM NDP52 with 5 µM F-actin (20% biotinylated), streptavidin Dynabeads, 150 mM NaCl, 50 mM Tris.HCl pH 7.5, 1 mM MgCl2, 1 mM DTT, RT; SDS–PAGE of pellet and supernatant
MVI_(TAIL(NI)) [1] = experiment: FRET or BRET; stopped flow; 1 µM FITC-MVI_TAIL(NI) and 1 µM AF555-MVI_TAIL(NI) pre-mixed, then mixed with an excess of unlabelled NDP52, pseudo-first order; 25°C, 50 mM Tris–HCl pH 7.5, 150 mM NaCl, 1 mM DTT, 3 mM MgCl2
MVI_(TAIL(NI)) [2] = experiment: as above; remark: listed apart in the source
MVI_(814–1060) = experiment: FRET or BRET; titration of Alexa555-CBD against 1 µM FITC-labelled N-terminal tail fragment, plate reader, 25°C, 50 mM Tris·HCl pH 7.5, 150 mM NaCl, 1 mM DTT; fitted to a quadratic binding equation
[3] = biological target: MVI_(814–1091) (containing the LI); experiment: as above
MVI_(TAIL(NI)) [4] = experiment: FRET or BRET; stopped flow; 1 µM FITC-MVI_TAIL(NI) mixed with excess AF555-NDP52, pseudo-first order; 25°C, 50 mM Tris–HCl pH 7.5, 150 mM NaCl, 1 mM DTT, 3 mM MgCl2
MVI_(TAIL(NI)) [5] = biological target: MVI_(TAIL(NI))
[6] = biological target: T1, nuclear dot protein 52 (NDP52), Q13137; experiment: SEC-MALS; 100 µl of 2 mg/ml protein on Superdex 200 (30 × 1 cm), 150 mM NaCl, 50 mM Tris.HCl pH 7.5, 1 mM DTT, room temperature; conditions: remark: other sources report otherwise
T1 chain: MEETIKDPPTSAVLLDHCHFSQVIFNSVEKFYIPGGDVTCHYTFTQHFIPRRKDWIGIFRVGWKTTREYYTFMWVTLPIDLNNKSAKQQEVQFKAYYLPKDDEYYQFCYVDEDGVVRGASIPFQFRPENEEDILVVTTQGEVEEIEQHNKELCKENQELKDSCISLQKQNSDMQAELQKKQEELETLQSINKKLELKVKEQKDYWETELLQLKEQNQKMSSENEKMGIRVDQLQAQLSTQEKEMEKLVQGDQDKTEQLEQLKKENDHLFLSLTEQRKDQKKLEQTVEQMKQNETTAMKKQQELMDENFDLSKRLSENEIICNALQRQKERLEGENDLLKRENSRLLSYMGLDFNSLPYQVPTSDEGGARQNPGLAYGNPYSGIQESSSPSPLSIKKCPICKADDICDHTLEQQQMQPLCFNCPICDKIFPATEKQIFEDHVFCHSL

Full-length MVI NI (natural protein)
percent of MVI bound to actin (F-actin): 50% | percent of MVI bound to actin (with an excess of NDP52) (F-actin): > 80% | kcat of the steady-state actin-activated ATPase of full-length MVI in the presence of dimeric NDP52 (Full-length MVI NI): 2.11 s⁻¹ | kcat of the steady-state actin-activated ATPase of full-length MVI in the presence of monomeric tDab2 (Full-length MVI NI): 2.55 s⁻¹

MVI_(1–1060) (domain or fragment)
kcat of the steady-state actin-activated ATPase of MVI 1-1060 (MVI_(1–1060)): 2.79 s⁻¹

MVI_(TAIL(NI)) (domain or fragment)
observed rate constant of the FRET increase (dimerization after adding NDP52) (MVI_(TAIL(NI)) [1]): 2.2 s⁻¹ | observed rate constant of the FRET increase (dimerization after adding NDP52) (MVI_(TAIL(NI)) [2]): 2.45 s⁻¹

Myosin VI cargo binding domain (CBD) (domain or fragment)
Kd (MVI_(814–1060)): 4.8 µM | Kd [3]: 5.98 µM

B1: nuclear dot protein 52 (NDP52) (natural protein)
chain: MEETIKDPPTSAVLLDHCHFSQVIFNSVEKFYIPGGDVTCHYTFTQHFIPRRKDWIGIFRVGWKTTREYYTFMWVTLPIDLNNKSAKQQEVQFKAYYLPKDDEYYQFCYVDEDGVVRGASIPFQFRPENEEDILVVTTQGEVEEIEQHNKELCKENQELKDSCISLQKQNSDMQAELQKKQEELETLQSINKKLELKVKEQKDYWETELLQLKEQNQKMSSENEKMGIRVDQLQAQLSTQEKEMEKLVQGDQDKTEQLEQLKKENDHLFLSLTEQRKDQKKLEQTVEQMKQNETTAMKKQQELMDENFDLSKRLSENEIICNALQRQKERLEGENDLLKRENSRLLSYMGLDFNSLPYQVPTSDEGGARQNPGLAYGNPYSGIQESSSPSPLSIKKCPICKADDICDHTLEQQQMQPLCFNCPICDKIFPATEKQIFEDHVFCHSL
modifications: Alexa Fluor 555 label in the stopped-flow FRET assay (site not stated); unlabelled elsewhere
Kd (MVI_(TAIL(NI)) [4]): 1.94 µM | koff (MVI_(TAIL(NI)) [4]): 3.2 s⁻¹ | kon (MVI_(TAIL(NI)) [4]): 1.65e+06 M⁻¹ s⁻¹ | rate constant of the second phase (unfolding after binding, independent of NDP52 concentration) (MVI_(TAIL(NI)) [4]): 2.2 s⁻¹ | rate constant of the fluorescence decrease of Cy3B-calmodulin bound to MVI TAIL(NI) on mixing with excess NDP52 (unfolding; independent of NDP52 concentration) (MVI_(TAIL(NI)) [5]): 1.95 s⁻¹

B2: nuclear dot protein 52 (NDP52), Q13137 1-446 (natural protein)
chain: MEETIKDPPTSAVLLDHCHFSQVIFNSVEKFYIPGGDVTCHYTFTQHFIPRRKDWIGIFRVGWKTTREYYTFMWVTLPIDLNNKSAKQQEVQFKAYYLPKDDEYYQFCYVDEDGVVRGASIPFQFRPENEEDILVVTTQGEVEEIEQHNKELCKENQELKDSCISLQKQNSDMQAELQKKQEELETLQSINKKLELKVKEQKDYWETELLQLKEQNQKMSSENEKMGIRVDQLQAQLSTQEKEMEKLVQGDQDKTEQLEQLKKENDHLFLSLTEQRKDQKKLEQTVEQMKQNETTAMKKQQELMDENFDLSKRLSENEIICNALQRQKERLEGENDLLKRENSRLLSYMGLDFNSLPYQVPTSDEGGARQNPGLAYGNPYSGIQESSSPSPLSIKKCPICKADDICDHTLEQQQMQPLCFNCPICDKIFPATEKQIFEDHVFCHSL
modifications: here or on the partner: Alexa Fluor 555 label in the stopped-flow FRET assay (site not stated); unlabelled elsewhere; Alexa Fluor 555 label in the stopped-flow FRET assay (site not stated); unlabelled elsewhere
stoichiometry N [6]: 2
